Results reported in publication PMC8048981 (2021).
Bridge positions count the residues as written; N and C are the ends.

Target: MDM2 (Homo sapiens, UniProt Q00987)
Experiment: fluorescence polarization

MDM2, sequence (Q00987 whole entry): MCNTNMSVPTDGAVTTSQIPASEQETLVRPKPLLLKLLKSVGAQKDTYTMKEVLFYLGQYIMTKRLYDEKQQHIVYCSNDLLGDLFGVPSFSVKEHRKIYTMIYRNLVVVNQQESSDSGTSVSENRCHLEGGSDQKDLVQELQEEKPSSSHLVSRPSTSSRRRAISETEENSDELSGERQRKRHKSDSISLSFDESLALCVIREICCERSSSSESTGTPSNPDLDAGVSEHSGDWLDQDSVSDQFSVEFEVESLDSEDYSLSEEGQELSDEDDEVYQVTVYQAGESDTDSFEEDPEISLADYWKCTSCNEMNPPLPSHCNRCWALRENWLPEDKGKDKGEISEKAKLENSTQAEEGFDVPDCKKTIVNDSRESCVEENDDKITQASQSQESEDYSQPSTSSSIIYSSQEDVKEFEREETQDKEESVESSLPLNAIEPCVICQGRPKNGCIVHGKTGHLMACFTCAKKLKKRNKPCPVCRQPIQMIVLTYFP

Kd | Binder
29 nM | {5(6)‑carboxyfluorescein}-QSQQTFCNLWRLLKQN-NH2 (linker 7-14 via para‑phenyl thioalkyne amide (reagent 9a)) [stapled p53-derived peptide 29a']
346 nM | {5(6)‑carboxyfluorescein}-QSQQTFCNLWRLLKQN-NH2 [linear p53-derived peptide 28']
